Data reported in paper PMC3875231 (Nature, 2013).

Target: MalK, ATPase subunit of the maltose transporter (E. coli, UniProt P68187 1-371)
Experiment: crystal structure

MalK, ATPase subunit of the maltose transporter, sequence (P68187 whole entry): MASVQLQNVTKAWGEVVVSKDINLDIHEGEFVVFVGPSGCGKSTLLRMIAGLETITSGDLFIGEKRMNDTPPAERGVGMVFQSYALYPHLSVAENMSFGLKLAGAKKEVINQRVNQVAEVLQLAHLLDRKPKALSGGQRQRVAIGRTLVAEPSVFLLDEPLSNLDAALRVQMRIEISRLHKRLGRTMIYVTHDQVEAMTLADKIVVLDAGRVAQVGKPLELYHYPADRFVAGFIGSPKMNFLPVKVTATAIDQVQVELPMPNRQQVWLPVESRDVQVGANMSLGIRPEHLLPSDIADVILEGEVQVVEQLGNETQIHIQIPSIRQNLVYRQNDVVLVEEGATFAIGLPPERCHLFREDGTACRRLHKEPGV

B1: glucose-specific enzyme IIA (EIIA^Glc), full-length (natural protein, E. coli, UniProt P69783 1-169, looked up)
chain: MGLFDKLKSLVSDDKKDTGTIEIIAPLSGEIVNIEDVPDVVFAEKIVGDGIAIKPTGNKMVAPVDGTIGKIFETNHAFSIESDSGVELFVHFGIDTVELKGEGFKRIAEEGQRVKVGDTVIEFDLPLLEEKAKSTLTPVVISNMDEIKELIKLSGSVTVGETPVIRIKK
B1: binds.
